# Assay results from patent publication US10098960B2, “Polymer conjugate” (UCL Business PLC, priority 2015, dated 2018).
# B1: wild-type DI: recombinant wild-type domain I of human β2GPI, SEQ ID NO: 2, approximately 7 kDa, unconjugated (protein, listed as Homo sapiens)
# chain: GRTCPKPDDLPFSTVVPLKTFYEPGEEITYSCKPGYVSRGGMRKFICPLTGLWPINTLKCTPR
# modifications: ends and bridges not checked
# B2: D8S, D9G mutant-PEG (20 kDa): D8S,D9G variant domain I (SEQ ID NO: 3) mono-PEGylated with 20 kDa PEG reagent (conjugate)
# chain: GRTCPKPSGLPFSTVVPLKTFYEPGEEITYSCKPGYVSRGGMRKFICPLTGLWPINTLKCTPR
# modifications: ends and bridges not checked; also: mono-PEGylated with 20 kDa PEG reagent, site not given here
# B3: WT DI-PEG (20 kDa): wild-type domain I β2GPI (SEQ ID NO: 2) mono-PEGylated across a disulfide bridge with 20 kDa PEG reagent 1 (conjugate, listed as Homo sapiens)
# chain: GRTCPKPDDLPFSTVVPLKTFYEPGEEITYSCKPGYVSRGGMRKFICPLTGLWPINTLKCTPR
# modifications: not fully specified (bridges); ends and bridges not checked; also: mono-PEGylated across a disulfide bridge, Cys places not given here
# B4: DI(D8S/D9G): variant of domain I of human β2GP1, SEQ ID NO: 3, unconjugated (protein)
# chain: GRTCPKPSGLPFSTVVPLKTFYEPGEEITYSCKPGYVSRGGMRKFICPLTGLWPINTLKCTPR
# modifications: ends and bridges not checked
# Assays:
# [1] = tested on: binding of aPLs to immobilised native antigen; conditions: aPLs from patients with pregnancy loss and with thrombosis; Ioannou et al. 2007; cited from earlier work
# [2] = tested on: aPL-induced venous thrombosis formation; conditions: mouse model of APS; Ioannou et al. 2009; cited from earlier work
# [3] = tested on: purified IgG from patients with APS in normal human plasma (lupus anticoagulant effect); experiment: LA (Lupus Anticoagulant) dilute Russel Viper Venom (dRVT-plus) coagulometer assay; type: biochemical; conditions: 500 μg/ml antibody and 25 μg/ml DI; IgG from four APS patients; FIGS. 8A-8D
# Method: LA (Lupus Anticoagulant) Dilute Russel Viper Venom (dRVT-plus) Assay:
# Assay reagents were used as described in manufacturer's (Haematex) instructions.
# This assay reproduces the “lupus anticoagulant” (LA) effect, a test in which antibodies from serum of patients with APS cause a measurable prolongation of clotting time under specific conditions in vitro. Purified IgG from four patients with APS (shown as FIGS. 8A-8D) was pre-incubated with the DI constructs at a molar ratio of ˜1:1 (500 μg/ml antibody and 25 μg/ml DI) before being added to normal human plasma either with or without excess phospholipid—which prevents the anticoagulant effect of the IgG. The results are expressed as ratio of clotting time in absence to that in the presence of excess phospholipid. The higher the ratio, the greater the biological effect exerted by the IgG-APS.
# Plasma was thawed on ice, meanwhile the Coagulometer (CA-50, Sysmex) was allowed to warm and reagents were prepared.
# Patient antibodies were purified using Protein G IgG purification kit (Pierce), as described by manufacturer's instructions. IgA antibodies are purified using Jacalin beads (Pierce), as per manufacturer's instructions. […]
# Plasma was dispensed into glass vials (200 μl×2) and reagents, either low [phospholipid] […] When the clot reached 50% the timing was stopped and recorded. […]
# [4] = tested on: APS IgG-induced femoral vein thrombus formation; experiment: In vivo mouse blood clot model (blood vessel pinch model); parameters: species or system C57BL/6 mice; conditions: recombinant wild-type DI 40 μg intraperitoneally at 0 h and 48 h; 500 μg APS IgG; femoral vein pinch at 72 h; FIG. 10
# Method: In vivo analysis of inhibition of thrombus formation by DI was carried out in a similar manner to those described within Ioannou et al., 2009, Journal of Thrombosis and Haemostasis, 7: 833-842, In vivo inhibition of antiphospholipid antibody-induced pathogenicity utilizing the antigenic target peptide domain I of beta2-glycoprotein I: proof of concept.
# C57BL/6 mice (The Jackson Laboratory, Bar Harbor, Me., USA) were used for these studies.
# NHS IgG and APS IgG mean protein G purified antibody obtained from Normal Healthy Subjects or APS patients respectively.
# At time 0 h, 2 control groups were untreated, whereas 3 groups of mice were injected intraperitoneally with either recombinant wild-type DI (40 μg), PEGylated wild-type DI (20 μg) or PEG alone, in phosphate-buffered saline (PBS). After 60 min, 4 groups of mice were then treated intraperitoneally with 500 μg of APS IgG, while 1 group received 500 μg of NHS IgG, both in PBS. Both of these treatments were repeated at 48 h and 49 h respectively. The APS IgG dose was the minimal amount of APS IgG antibody required to increase thrombus size beyond two standard deviations (SDs) of the mean size induced by control NHS IgG post-injury. The APS IgG/DI molar ratios were 2.3:1, 1.15:1. […] A pinch stimulus was applied and the thrombus formation was visualised using a transilluminator and measured electronically. […]
# [5] = tested on: IgA binding to immobilised β2GPI; experiment: Competitive inhibition ELISA for IgA binding to β2GPI; parameters: species or system human; conditions: FIG. 9
# Method: (§1) Competitive inhibition ELISA was carried out to test the ability of recombinant DI to inhibit binding of purified IgG from patients with APS to immobilised β2GPI. The assay was adapted from the standard β2GPI ELISA published by Ioannou et al., (BMC biotechnology 2006, 6:8) with the following amendments: the inhibitors were pre-incubated at concentrations ranging from 0 mg/ml to 200 μg/ml rather than 0 to 30 μM. Briefly, the test was carried out to test the ability of recombinant DI to inhibit binding of purified IgG from patients with APS to β2GPI coated on a plate. Recombinant DI was pre-incubated with patient serum prior to addition on the ELISA plate coated with β2GPI. Bound patient IgG was detected with an anti-human IgG HRP secondary antibody. Each sample was tested in duplicate.
# Assays were carried out using identical methodology to Example 6 with the following alteration; an anti-human IgA secondary conjugated to HRP was used rather than an anti-human IgG secondary antibody.
# [6] = tested on: binding of purified IgG from patients with APS to immobilised β2GPI; experiment: Competitive inhibition ELISA (IgG); parameters: species or system human; conditions: 175 μg/ml of test protein
# Method: as §1
# Competitive inhibition data is generally expressed as retained binding of the antibody to the antigen on the plate in the presence of the inhibitor protein (DI-PEG or DI). […] Activities of PEGylated or non-PEGylated DI are given based on % inhibition. FIGS. 7A-7F show % inhibition data for pegylated and non-pegylated DI constructs.
molecule,measurement,setting,value
B1,inhibition of binding of aPLs to immobilised native antigen,[1],inhibit the binding of aPLs
same,inhibition of in vivo aPL-induced venous thrombosis formation,[2],inhibit in vivo aPL-induced venous thrombosis formation
same,inhibition of lupus anticoagulant effect (ratio of clotting time in absence to presence of excess phospholipid),[3],inhibit this biological effect of IgG APS
same,inhibition of thrombus formation (clot size),[4],prevented the formation of large blood clots
same,inhibition of IgA binding to β2GPI,[5],inhibits IgA binding to β2GPI
B2,"Retained Activity of D8S, D9G mutant-PEG (20 kDa) Vs D8S, D9G (%)",[6]; Patient 1 IgG,87.8%
same,"Retained Activity of D8S, D9G mutant-PEG (20 kDa) Vs D8S, D9G (%)",[6]; Patient 2 IgG,70.8%
same,"Retained Activity of D8S, D9G mutant-PEG (20 kDa) Vs D8S, D9G (%)",[6]; Patient 3 IgG,83.3%
same,"Retained Activity of D8S, D9G mutant-PEG (20 kDa) Vs D8S, D9G (%)",[6]; Patient 4 IgG,100%
same,"Retained Activity of D8S, D9G mutant-PEG (20 kDa) Vs D8S, D9G (%)",[6]; Patient 5 IgG,64%
same,"Retained Activity of D8S, D9G mutant-PEG (20 kDa) Vs D8S, D9G (%)",[6]; Patient 6 IgG,100%
B3,Retained Activity of WT DI-PEG (20 kDa) Vs WT DI (%),[6]; Patient 1 IgG,98.5%
same,Retained Activity of WT DI-PEG (20 kDa) Vs WT DI (%),[6]; Patient 2 IgG,74.9%
same,Retained Activity of WT DI-PEG (20 kDa) Vs WT DI (%),[6]; Patient 3 IgG,88.3%
same,Retained Activity of WT DI-PEG (20 kDa) Vs WT DI (%),[6]; Patient 4 IgG,91.5%
same,Retained Activity of WT DI-PEG (20 kDa) Vs WT DI (%),[6]; Patient 5 IgG,70%
same,Retained Activity of WT DI-PEG (20 kDa) Vs WT DI (%),[6]; Patient 6 IgG,91.9%
B4,inhibition of binding of aPLs to immobilised native antigen,[1],inhibition is greater
same,inhibition of in vivo aPL-induced venous thrombosis formation,[2],inhibit in vivo aPL-induced venous thrombosis formation
